Source: patent publication US7276258B2, “Herbal extract and compound lupinoside and its analogues as anti-diabetic type II drugs from plant Pueraria tuberosa” (Council of Scientific & Industrial Research, priority 2004, dated 2007)

Molecular target: T1, insulin receptor (Mus musculus, UniProt P15208)
T1 construct: endogenous in cells; host or cells: 3T3-L1 adipocytes (membrane fraction solubilized with lithium diiodosalicylate / 0.1% Triton X-100)
Test: Scatchard analysis of 125I-insulin binding to solubilized receptor preparation from 3T3L1 adipocytes
Conditions: insulin alone
Protocol: Radiolabeled insulin binding to solubilized receptor preparations. Control and FFA treated 3T3L1 adipocytes were first washed thrice with 0.02M Phosphate Buffer (pH-7.4) containing 0.14M NaCl and then resuspended in Lysis Buffer (20 mM Tris-HCl, 40 mM NaCl, 5 mM EDTA, 5 mM Iodoacetamide, pH-8.4) supplemented with protease inhibitors (1 μg/ml aprotinin, 1 μg/ml pepstatin, 1 μg/ml leupeptin, 2 mM phenyl methyl sulfonyl fluoride and 1 μg/ml trypsin inhibitor). These cells were then freeze thawed thrice at −70° C. and centrifuged at 10,000 rpm for 15 min at 4° C. The pellet collected was resuspended in Lysis Buffer, sonicated and again centrifuged at 10,000 rpm for 15–20 min at 4° C. The supernatant was dialysed overnight against 10 mM Tris-HCl (pH-7.4) buffer and volume reduced by lyophilisation. […]
Scatchard Analysis. […] After the termination of the incubations, free and bound radioactivity was separated by the addition of 500 μl of 0.5% chilled polyethylene glycol (PEG; MW 6000). […] The radioactivity in the final pellet was measured in a ^125I-gamma counter. The specific binding was calculated by subtracting non-specific binding from total binding. Data were then analyzed by Scatchard analysis to determine the affinity and capacity of insulin receptor binding in the presence or absence of palmitic acid (see FIG. 1b).

T1 sequence (P15208 28-748 limits assumed): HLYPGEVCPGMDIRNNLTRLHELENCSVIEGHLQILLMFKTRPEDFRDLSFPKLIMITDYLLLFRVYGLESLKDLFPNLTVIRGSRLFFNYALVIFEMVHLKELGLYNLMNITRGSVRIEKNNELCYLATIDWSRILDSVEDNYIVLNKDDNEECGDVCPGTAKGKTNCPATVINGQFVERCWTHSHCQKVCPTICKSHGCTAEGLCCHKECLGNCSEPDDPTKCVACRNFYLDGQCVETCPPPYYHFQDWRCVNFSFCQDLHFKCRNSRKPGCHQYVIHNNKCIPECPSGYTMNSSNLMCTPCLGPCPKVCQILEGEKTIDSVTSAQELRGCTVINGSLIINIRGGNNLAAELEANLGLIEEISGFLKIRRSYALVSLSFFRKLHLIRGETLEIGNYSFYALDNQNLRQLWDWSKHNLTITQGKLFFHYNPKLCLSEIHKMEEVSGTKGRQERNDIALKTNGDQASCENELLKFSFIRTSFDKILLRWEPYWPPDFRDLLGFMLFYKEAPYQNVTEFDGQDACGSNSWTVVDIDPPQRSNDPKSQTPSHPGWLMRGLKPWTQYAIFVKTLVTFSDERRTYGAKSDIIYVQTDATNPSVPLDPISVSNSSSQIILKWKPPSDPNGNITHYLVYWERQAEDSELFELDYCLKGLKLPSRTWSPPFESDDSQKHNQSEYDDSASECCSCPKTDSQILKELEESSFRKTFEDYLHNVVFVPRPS
T1 sequence (P15208 753-1372 partner limits assumed): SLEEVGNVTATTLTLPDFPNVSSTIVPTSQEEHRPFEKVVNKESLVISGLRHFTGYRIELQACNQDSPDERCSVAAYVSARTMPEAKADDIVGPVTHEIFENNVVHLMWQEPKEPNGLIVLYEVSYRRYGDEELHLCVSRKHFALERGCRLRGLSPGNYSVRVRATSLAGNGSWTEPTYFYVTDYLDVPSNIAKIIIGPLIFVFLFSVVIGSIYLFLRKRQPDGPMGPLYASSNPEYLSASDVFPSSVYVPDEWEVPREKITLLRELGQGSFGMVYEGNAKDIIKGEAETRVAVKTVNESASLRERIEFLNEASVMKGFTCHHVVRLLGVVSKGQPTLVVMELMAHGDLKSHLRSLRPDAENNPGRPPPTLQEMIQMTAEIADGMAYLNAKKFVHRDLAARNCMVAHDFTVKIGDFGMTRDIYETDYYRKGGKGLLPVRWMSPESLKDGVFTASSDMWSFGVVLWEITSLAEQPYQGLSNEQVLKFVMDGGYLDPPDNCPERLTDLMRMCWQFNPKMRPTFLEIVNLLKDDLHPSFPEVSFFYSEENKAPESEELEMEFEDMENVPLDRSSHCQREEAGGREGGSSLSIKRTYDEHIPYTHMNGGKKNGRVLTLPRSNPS

insulin: recombinant human insulin, radiolabelled with 125I for binding
Ka of insulin binding to solubilized receptor: 1.6e+09 M⁻¹
